We go through twelve sequences from the supplement of paper PMC9170038.

This data set deals with MS2 coat protein. Nature of the data set: apparent KD of MS2 coat protein; designed switch direction (-1 OFF switch, 1 ON switch): -1; higher = weaker reporter binding. The gist of the method:
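Each step of the titration lasted 0.8–1.5 h at the lowest concentration and 10–20 min at the highest. The protein, SNAP-549-labelled MS2 coat protein, went from 0.7 or 1.5 nM doubling to 3 µM over RNA switches transcribed on Illumina chips by stalled E. coli RNA polymerase. Normalised cluster fluorescence was curve-fitted, and the per-design median over clusters is given as apparent KD.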

[1] abbreviates: Eterna round: R95, input ligand: FMN 200 uM.
[2] abbreviates: Eterna round: R95, input ligand: microRNA oligo, concentration not stated.
Where [3] appears, read: Eterna round: R95, input ligand: none.
[4] abbreviates: input ligand: microRNA oligo, concentration not stated.

Take “GGUUGACAUGAGGAUCACCCAUGUGAGGAUAUGCGAGAGAAAAAAGUGAGGAAGAAAUGCAGAAGGCGCUGUCG [salish99-ex1_r3_009] (puzzle: Exclusion 1)”: the “apparent KD of MS2 coat protein” value under setting [1] came to 0.127 µM, the “apparent KD of MS2 coat protein” value under setting [2] stood at 0.0815 µM and the “apparent KD of MS2 coat protein” value under setting [3] is 0.433 µM.
Take “GUAAACGAAGAGGAUAUUUGAUAUCAUAGCUUCAAAGAAGGCUUCACAUGAGGAUCACCCAUGUGAUCUUCAAA [Mat - Exclusion 6 - JL Mod - D22] (Eterna round: R97, puzzle: Exclusion 6)”: the “apparent KD of MS2 coat protein” value runs as follows: (input ligand: FMN 200 uM) 0.142 µM; (input ligand: none) 0.0207 µM.
Take “GUAUGUUAUGAGGAUAUCGGUGAACAUACACAUCGAGAAGGCAUGACAUGAGGAUCACCCAUGUCAAGGAUGAC [Exclusion 6 - B - 18:d] (puzzle: Exclusion 6)”: the “apparent KD of MS2 coat protein” value under setting [2] is 0.0249 µM.
Take “CAGGACAGAGGAUAUACAUAGAUACAGAUUCAUGUAGAACUACAUGAGGAUCACCCAUGUAGAAGGCUGACCUG [Fiskers Ex 2 - 4] (Eterna round: R96, puzzle: Exclusion 2)”: the “apparent KD of MS2 coat protein” value reads like this: (input ligand: FMN 200 uM) 0.311 µM; under setting [4], 0.0235 µM; (input ligand: none) 0.0315 µM.
In the case of “CUAAAUCAUGUAGGAUAUGCGUAGCAAAGCUAUGCAGAAGGACAUGAGGAUCACCCAUGUCAUUCCGUCUGGAGACAGACGGGA [Mat - Exclusion NG 1 - Mod of JL - D55] (Eterna round: R96, puzzle: Exclusion NG 1)”, the “apparent KD of MS2 coat protein” value by setting is: (input ligand: FMN 200 uM) 0.186 µM; under setting [4], 0.0216 µM; (input ligand: none) 0.0308 µM.
Take “GCACGGAGUGUAGGAUAUCUGUGCGAUUAGCUCAGAGAAGGACACAUGAGGAUCACCCAUGUGUAACAACACAAUAAUCCGUGC [Eli exng1 - 072] (Eterna round: R96, puzzle: Exclusion NG 1)”: the “apparent KD of MS2 coat protein” value runs as follows: (input ligand: FMN 200 uM) 0.0123 µM; under setting [4], 0.0112 µM; (input ligand: none) 0.0142 µM.
In the same order, the values of “CCGCUCCGUGUAGGAUAUUGGCGUGCCCUGCGCCGAGAAGGACAUGAGGAUCACCCAUGUAUGUUAUUAUCACGCGUGGCGCAU [Design 77] (Eterna round: R96, puzzle: Exclusion NG 1)” are 0.0322 µM, 0.0167 µM and 0.022 µM.
For the sequence “UUACAAUGUCGCUUACAAGCUUUUUGCUCGUCUUAUAUUACAUGAGGAUCACCCAUGUAGAUCAUGUGGCGUGACCU [JL ViennaUCT Maridi mod 9] (puzzle: Sensor v3, turn-off variant 2)”, the “apparent KD of MS2 coat protein” value worked out at 0.165 µM under setting [1], 0.0233 µM under setting [2] and 0.208 µM under setting [3].
Take “CCUGGGUCAUCUCCCAGGAACAACAUGAGGAUCACCCAUGUCUAGGAUAUCCACCAGUCAAUAAAGGAGAAGGAGACGGUGGUU [Onlaxe] (Eterna round: R96, puzzle: Exclusion NG 3)”: the “apparent KD of MS2 coat protein” value came to 0.0222 µM (input ligand: FMN 200 uM), 0.0146 µM under setting [4] and 0.0197 µM (input ligand: none).
Consider “AAGAUGUGAGGAUAUCACGAAGGCGUCAAACUGACGCCUUCUGAGAAGGCACAUGAGGAUCACCCAUGUCCAAA [EX4 A.23] (Eterna round: R97, puzzle: Exclusion 4)”, for which the “apparent KD of MS2 coat protein” value (input ligand: FMN 200 uM) amounted to 0.325 µM and the “apparent KD of MS2 coat protein” value (input ligand: none) amounted to 0.0586 µM.
In the same order, the values of “UGAAUACGUGUUAGGAUAUGGUUUGGUAUUUUAGAUUAGAAGGGACAUGAGGAUCACCCAUGUAAUUGAUAGGU [-13, -10.4 kcal, 30% A] (Eterna round: R97, puzzle: Brourd's mod of Exclusion 4)” are 0.038 µM and 0.0419 µM.
As for “CCCAUGUCAGGAUAUUAAUUGGACGGGAAAUCCCGCCCACUUGAGAAGGGACAUGAGGAUCACCCAUGUAAAAC [Esatedbe] (Eterna round: R97, puzzle: Exclusion 4)”, the “apparent KD of MS2 coat protein” value by setting is: (input ligand: FMN 200 uM) 0.0547 µM; (input ligand: none) 0.385 µM.
